The target of assay [1] is T1, 6H–hTFIIEα V390K (human, UniProt P29083 1-439, V390K).
T1 sequence: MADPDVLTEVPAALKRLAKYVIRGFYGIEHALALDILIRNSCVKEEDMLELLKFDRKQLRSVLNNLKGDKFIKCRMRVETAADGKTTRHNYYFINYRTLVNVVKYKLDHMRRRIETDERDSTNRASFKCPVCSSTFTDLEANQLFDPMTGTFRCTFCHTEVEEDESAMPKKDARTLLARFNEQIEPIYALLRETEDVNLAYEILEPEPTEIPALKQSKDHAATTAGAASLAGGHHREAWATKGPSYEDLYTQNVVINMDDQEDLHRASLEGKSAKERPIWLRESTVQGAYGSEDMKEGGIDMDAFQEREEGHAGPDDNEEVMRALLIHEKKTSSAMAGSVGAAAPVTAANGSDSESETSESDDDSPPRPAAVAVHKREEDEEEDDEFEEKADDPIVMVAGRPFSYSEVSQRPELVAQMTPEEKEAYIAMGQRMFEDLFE
Briefly: pull-down.

Assay [2] deals with T2, 6H–hTFIIEα F387E (human, UniProt P29083 1-439, F387E).
T2 sequence: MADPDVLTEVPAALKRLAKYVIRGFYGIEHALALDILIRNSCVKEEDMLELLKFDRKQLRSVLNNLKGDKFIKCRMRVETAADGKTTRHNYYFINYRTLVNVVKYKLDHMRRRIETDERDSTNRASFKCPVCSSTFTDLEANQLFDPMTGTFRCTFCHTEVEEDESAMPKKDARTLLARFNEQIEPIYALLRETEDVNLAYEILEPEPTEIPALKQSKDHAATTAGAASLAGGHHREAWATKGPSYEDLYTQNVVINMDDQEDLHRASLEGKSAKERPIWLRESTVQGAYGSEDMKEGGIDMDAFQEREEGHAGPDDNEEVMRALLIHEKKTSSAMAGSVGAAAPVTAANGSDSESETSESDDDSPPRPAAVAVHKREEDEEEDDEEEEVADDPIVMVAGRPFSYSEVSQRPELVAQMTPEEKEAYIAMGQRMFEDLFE
Nature of the assay: pull-down.

B1: GST-tagged hTFIIEβ (natural protein)
chain: MDPSLLRERELFKKRALSTPVVEKRSASSESSSSSSKKKKTKVEHGGSSGSKQNSDHSNGSFNLKALSGSSGYKFGVLAKIVNYMKTRHQRGDTHPLTLDEILDETQHLDIGLKQKQWLMTEALVNNPKIEVIDGKYAFKPKYNVRDKKALLRLLDQHDQRGLGGILLEDIEEALPNSQKAVKALGDQILFVNRPDKKKILFFNDKSCQFSVDEEFQKLWRSVTVDSMDEEKIEEYLKRQGISSMQESGPKKVAPIQRRKKPASQKKRRFKTHNEHLAGVLKDYSDITSSK
For the molecule B1, the binding result in assay [1] and in assay [2] was “binds” each time.

The values are drawn from article PMC2275666 (The EMBO Journal, 2008).
